{"source": "patent US20080051336A1", "about": "(Janssen / Centocor, published 2008)", "binders": {"B1": {"name": "human relaxin-3/INSL5 chimeric polypeptide (R3/I5), mature (ligand)", "chain": "RAAPYGVRLCGREFIRAVIFTCGGSRWQDLQTLCCTDGCSMTDLSALC", "modifications": "disulfide (positions not given here); also: two chains (relaxin-3 B-chain, INSL5 A-chain), disulfide-linked, chain break not marked", "notes": "Mature two-chain peptide: human relaxin-3 B-chain disulfide-linked to human INSL5 A-chain; FLAG tag removed; the tracer is kept under this same molecule; also called R3/5; I5/R3"}, "B2": {"name": "human relaxin-3/INSL4 chimeric polypeptide (R3/I4), mature (ligand)", "chain": "RAAPYGVRLCGREFIRAVIFTCGGSRWFDPFCCEVICDDGTSVKLC", "modifications": "disulfide (positions not given here); also: two chains (relaxin-3 B-chain, INSL4 A-chain), disulfide-linked, chain break not marked", "notes": "Mature two-chain peptide: human relaxin-3 B-chain disulfide-linked to human INSL4 A-chain; FLAG tag removed"}, "B3": {"name": "human relaxin (R1) (ligand)", "chain": "KWKDDVIKLCGRELVRAQIAICGMSTWSRPYVALFEKCCLIGCTKRSLAKYC", "notes": "also called relaxin-1"}, "B4": {"name": "human relaxin-3 (ligand)", "chain": "RAAPYGVRLCGREFIRAVIFTCGGSRWDVLAGLSSSCCKWGCSKSEISSLC", "modifications": "disulfide (positions not given here); also: two-chain peptide (A and B chains), disulfide-linked, places not given here", "notes": "Mature two-chain peptide (A-chain and B-chain, disulfide-linked); It is not clear whether that entry holds the B-chain alone or both chains; also called R3; INSL7"}}, "key": {"rat GPCR135 [1]": {"target": "T1, rat GPCR135 (rat, UniProt Q8BGE9 1-472 (mouse entry))", "T1 construct": "Also tested as the native receptor in rat brain sections; also called rat GPCR135 receptors", "T1 chain": "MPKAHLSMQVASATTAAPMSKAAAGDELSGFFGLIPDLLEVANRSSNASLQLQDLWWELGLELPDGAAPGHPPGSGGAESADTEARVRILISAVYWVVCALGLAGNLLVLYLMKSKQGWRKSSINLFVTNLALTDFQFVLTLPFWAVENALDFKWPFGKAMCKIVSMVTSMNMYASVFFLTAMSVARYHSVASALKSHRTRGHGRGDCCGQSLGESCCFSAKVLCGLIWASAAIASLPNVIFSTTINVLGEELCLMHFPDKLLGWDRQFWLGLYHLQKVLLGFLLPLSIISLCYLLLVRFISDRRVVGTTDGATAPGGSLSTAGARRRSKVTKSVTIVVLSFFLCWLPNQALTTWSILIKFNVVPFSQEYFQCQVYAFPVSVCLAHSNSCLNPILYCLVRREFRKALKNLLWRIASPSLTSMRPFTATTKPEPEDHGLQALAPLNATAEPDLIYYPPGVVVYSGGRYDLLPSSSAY", "assay": "competition with [125I]-R3 (100 pM), COS-7 membranes with rat GPCR135", "procedure": "(§1) The reaction was incubated at room temperature for 1 hour and the membranes were filtered through the 96-well GFC plates (Packard Instrument Co., Meriden, Conn.) using a cell harvester (Packard Instrument Co). The filter was washed with the ice cold washing buffer (50 mM Tris-HCl, pH 7.5). Fifty μl of Microscint 40 (Packard Instrument Co) was added to each well and the plates were counted on a Topcount NTX (Packard Instrument Co). […] The results were analyzed using the PRISM software (GraphPad, San Diego, Calif.)."}, "human GPCR142 [2]": {"target": "T2, human GPCR142 (human, UniProt Q8TDU9 1-374)", "T2 construct": "Recombinant", "T2 sequence (Q8TDU9 whole entry L329S)": "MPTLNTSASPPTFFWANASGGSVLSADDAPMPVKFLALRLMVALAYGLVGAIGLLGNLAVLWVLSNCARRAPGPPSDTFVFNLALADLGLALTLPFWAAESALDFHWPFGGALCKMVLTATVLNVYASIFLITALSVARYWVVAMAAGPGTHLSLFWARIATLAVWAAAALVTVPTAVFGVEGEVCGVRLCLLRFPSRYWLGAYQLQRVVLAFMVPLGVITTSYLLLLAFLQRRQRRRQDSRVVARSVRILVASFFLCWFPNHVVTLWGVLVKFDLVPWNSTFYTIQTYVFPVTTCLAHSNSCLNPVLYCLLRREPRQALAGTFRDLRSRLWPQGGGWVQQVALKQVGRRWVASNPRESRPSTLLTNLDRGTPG", "assay": "competition with [125I]-relaxin-3 (100 pM), COS-7 membranes with human GPCR142", "procedure": "(§2) Different unlabeled peptides were used in the binding assay as the competitors. […] Data represent mean±SEM (n=3).\n(§3) Peptides for competition binding studies were added to the binding mix (final volume: 200 μl) in binding buffer [50 mM Tris-HCl, pH 7.5, 5 mM EDTA, 1% bovine serum albumin, 0.1% protease inhibitor cocktails (Sigma)]. The binding mixtures were incubated at room temperature for 1 hour, filtered through GFC plates (Packard) pre-saturated with 0.3% Polyethylenimine (Sigma), and washed with cold washing buffer (50 mM Tris-HCl, pH 7.5, 5 mM EDTA)."}, "human GPCR135 [3]": {"target": "T3, human GPCR135 (human, UniProt Q9NSD7 1-469)", "T3 construct": "Recombinant; also called SALPR", "T3 sequence": "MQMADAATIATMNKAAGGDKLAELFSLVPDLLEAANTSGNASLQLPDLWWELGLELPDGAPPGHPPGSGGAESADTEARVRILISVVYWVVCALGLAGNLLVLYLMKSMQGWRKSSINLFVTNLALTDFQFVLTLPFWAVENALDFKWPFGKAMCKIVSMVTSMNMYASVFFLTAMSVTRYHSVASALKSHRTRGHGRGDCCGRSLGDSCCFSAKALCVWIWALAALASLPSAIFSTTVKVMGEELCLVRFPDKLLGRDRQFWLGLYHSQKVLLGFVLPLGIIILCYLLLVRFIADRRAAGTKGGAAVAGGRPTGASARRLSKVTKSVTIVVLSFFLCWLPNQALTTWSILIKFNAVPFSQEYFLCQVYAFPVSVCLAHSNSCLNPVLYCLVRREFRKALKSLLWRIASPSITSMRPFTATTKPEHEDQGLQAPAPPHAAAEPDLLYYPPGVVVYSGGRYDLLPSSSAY", "assay": "competition with [125I]-relaxin-3 (100 pM), COS-7 membranes with human GPCR135", "procedure": "as §2, §3"}, "human LGR8": {"target": "T4, human LGR8 (human, UniProt Q8WXD0 1-754)", "T4 construct": "whole, on cells", "T4 sequence (Q8WXD0 whole entry)": "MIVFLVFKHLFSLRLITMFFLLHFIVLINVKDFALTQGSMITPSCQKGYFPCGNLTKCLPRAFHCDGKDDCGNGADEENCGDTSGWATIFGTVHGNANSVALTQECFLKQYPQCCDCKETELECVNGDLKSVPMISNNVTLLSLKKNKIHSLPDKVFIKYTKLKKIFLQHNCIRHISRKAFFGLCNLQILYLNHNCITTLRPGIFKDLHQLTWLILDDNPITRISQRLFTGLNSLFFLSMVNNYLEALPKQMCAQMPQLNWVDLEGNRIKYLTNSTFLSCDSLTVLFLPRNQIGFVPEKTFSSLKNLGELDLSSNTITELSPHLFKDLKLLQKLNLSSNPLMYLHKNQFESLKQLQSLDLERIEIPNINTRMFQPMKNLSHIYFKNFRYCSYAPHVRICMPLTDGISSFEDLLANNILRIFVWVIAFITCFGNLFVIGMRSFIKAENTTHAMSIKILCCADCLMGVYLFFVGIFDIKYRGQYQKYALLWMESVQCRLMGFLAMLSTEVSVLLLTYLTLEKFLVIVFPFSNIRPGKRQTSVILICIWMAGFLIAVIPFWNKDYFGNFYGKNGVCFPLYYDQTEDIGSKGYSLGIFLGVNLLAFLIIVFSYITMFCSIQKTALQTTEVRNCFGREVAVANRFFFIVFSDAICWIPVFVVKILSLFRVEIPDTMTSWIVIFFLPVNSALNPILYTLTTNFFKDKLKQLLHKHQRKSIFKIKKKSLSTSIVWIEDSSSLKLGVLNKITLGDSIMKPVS", "assay": "competition with [125I]-INSL3 (100 pM) on live COS-7 cells expressing human LGR8; ND denotes no activity was detected", "procedure": "as §2\n(§4) Radioligand binding assays for LGR7 and LGR8 were performed using live COS-7 cells transiently transfected with LGR7 or LGR8 expression plasmids in 15-cm culture dishes using LipofectAmine (Invitrogen). Two days after transfection, the transfected cells were detached from the 15-cm culture dished using phosphate buffered saline (PBS) plus 10 mM EDTA, seeded into 96-well opaque poly-D-lysine coated culture plates and used for radioligand binding assays. […] [¹²⁵I]-labeled tracer was added in binding reactions at a final concentration of 100 pM in binding buffer containing DMEM plus 50 mM HEPES and 1% bovine serum albumin. […] The binding mixtures were incubated at room temperature for 1 hour. The unbound radioligand was removed by aspiration of the binding buffer. The cells were washed with PBS. The bound radioligand was counted in a scintillation counter (TopCount/NTX). The results were analyzed using Prism 3.0 program (Graphpad, San Diego, Calif.)."}, "rat GPCR135 [4]": {"target": "T1, rat GPCR135", "assay": "radioligand competition, COS-7 membranes; reference rat LGR7", "procedure": "as §1"}, "human LGR7 [5]": {"target": "T5, human LGR7 (human, UniProt Q9HBX9 1-757)", "T5 construct": "whole, on cells", "T5 sequence (looked up)": "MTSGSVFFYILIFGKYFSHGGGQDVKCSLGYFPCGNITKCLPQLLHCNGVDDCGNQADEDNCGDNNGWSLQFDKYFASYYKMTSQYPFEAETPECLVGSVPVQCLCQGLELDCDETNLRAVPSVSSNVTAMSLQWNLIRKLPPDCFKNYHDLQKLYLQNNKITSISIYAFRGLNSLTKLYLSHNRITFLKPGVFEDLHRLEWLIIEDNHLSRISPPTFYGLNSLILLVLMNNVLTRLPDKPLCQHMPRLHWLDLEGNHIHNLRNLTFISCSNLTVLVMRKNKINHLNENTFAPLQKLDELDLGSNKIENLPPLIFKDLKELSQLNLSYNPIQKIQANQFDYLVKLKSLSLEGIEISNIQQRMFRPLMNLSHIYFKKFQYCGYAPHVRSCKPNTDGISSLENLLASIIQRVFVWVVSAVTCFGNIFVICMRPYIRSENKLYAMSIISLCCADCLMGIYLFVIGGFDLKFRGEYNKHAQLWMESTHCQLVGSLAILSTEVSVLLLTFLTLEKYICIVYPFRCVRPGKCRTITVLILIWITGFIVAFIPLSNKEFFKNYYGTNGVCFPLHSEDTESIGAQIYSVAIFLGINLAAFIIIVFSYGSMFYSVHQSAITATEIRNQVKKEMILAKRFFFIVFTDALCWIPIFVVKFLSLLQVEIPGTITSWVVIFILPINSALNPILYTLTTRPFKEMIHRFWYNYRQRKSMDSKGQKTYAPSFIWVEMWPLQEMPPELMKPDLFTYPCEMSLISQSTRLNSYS", "assay": "competition with [125I]-relaxin-3 (100 pM), live COS-7 cells with human LGR7", "procedure": "as §2, §4"}, "rat LGR7": {"target": "T6, rat LGR7 (rat, UniProt Q6R6I6 1-758)", "T6 construct": "whole, on cells; Tested as membranes of transfected COS-7 cells; also called rat LGR7 receptors", "T6 sequence (looked up)": "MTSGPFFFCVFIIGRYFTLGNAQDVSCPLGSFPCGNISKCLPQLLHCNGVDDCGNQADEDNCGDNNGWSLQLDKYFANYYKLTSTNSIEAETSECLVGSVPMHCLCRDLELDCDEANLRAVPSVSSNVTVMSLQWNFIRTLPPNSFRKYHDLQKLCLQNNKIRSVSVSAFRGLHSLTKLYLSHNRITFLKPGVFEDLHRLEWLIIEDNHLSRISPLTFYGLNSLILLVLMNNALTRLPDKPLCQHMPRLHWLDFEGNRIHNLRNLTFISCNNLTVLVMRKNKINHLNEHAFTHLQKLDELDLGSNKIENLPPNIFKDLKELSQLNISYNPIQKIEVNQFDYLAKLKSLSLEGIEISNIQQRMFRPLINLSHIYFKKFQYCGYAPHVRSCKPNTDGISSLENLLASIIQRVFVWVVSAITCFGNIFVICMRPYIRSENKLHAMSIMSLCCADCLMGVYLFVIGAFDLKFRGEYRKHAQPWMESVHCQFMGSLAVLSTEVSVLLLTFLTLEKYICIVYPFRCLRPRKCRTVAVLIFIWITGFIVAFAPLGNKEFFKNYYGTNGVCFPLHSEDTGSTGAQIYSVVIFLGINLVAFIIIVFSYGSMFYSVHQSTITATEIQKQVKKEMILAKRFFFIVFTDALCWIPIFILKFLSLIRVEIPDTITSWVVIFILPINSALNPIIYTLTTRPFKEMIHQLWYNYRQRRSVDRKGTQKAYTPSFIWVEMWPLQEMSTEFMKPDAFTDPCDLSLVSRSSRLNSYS", "assay": "competition with [125I]R2 (100 pM), COS-7 membranes with rat LGR7", "procedure": "as §1"}, "human LGR7 [6]": {"target": "T5, human LGR7", "assay": "cell-based or functional assay"}, "human LGR7 [7]": {"target": "T5, human LGR7", "assay": "radioligand competition, live COS-7 cells with human LGR7", "procedure": "as §2, §4"}, "human LGR7 [8]": {"target": "T5, human LGR7", "assay": "discussion of the radioligand binding results"}, "human GPCR135 [9]": {"target": "T3, human GPCR135", "assay": "discussion of the radioligand binding results"}, "human LGR7 [10]": {"target": "T5, human LGR7", "assay": "cell-based or functional assay", "remark": "listed apart in the source"}, "human GPCR142 [11]": {"target": "T2, human GPCR142", "assay": "cell-based or functional assay"}, "human GPCR135 [12]": {"target": "T3, human GPCR135", "assay": "cell-based or functional assay"}, "human LGR7 [13]": {"target": "T5, human LGR7", "assay": "competition with [125I]-relaxin-3 (100 pM) on live COS-7 cells expressing human LGR7; ND denotes no activity was detected", "procedure": "as §2, §4"}, "rat GPCR135 [14]": {"target": "T1, rat GPCR135", "assay": "competition with [125I]R3 (100 pM), COS-7 membranes with rat GPCR135", "procedure": "as §1"}, "rat GPCR135 [15]": {"target": "T1, rat GPCR135", "assay": "inhibition of [125I]R3/I5 binding sites, quantitative receptor autoradiography, rat superior colliculus", "procedure": "(§5) Sections were thawed and dried under a cold air stream and then pre-incubated for 15 min. at room temperature in incubation buffer (20 mM HEPES, pH 7.4, 120 mM NaCl₂, 0.22 mM KH₂PO₄, 1.3 mM CaCl₂, 0.8 mM MgSO₄) by immersing sections in a 400 ml jar. […] After incubation, the excess radioligand was washed off by immersing the slides in the jar containing incubation buffer at 4° C. (3 times 10 min.) followed by a quick immersion in water. […] The imaging plates were scanned using the Fuji Bio-Imaging Analyzer System (BAS-5000, Fuji Medical System, CT) and visualized using ImageGauge V3.12 software (Fuji Medical System, CT)."}, "rat GPCR135 [16]": {"target": "T1, rat GPCR135", "assay": "inhibition of [125I]R3/I5 binding sites, quantitative receptor autoradiography, rat olfactory bulb", "procedure": "as §5"}, "rat GPCR135 [17]": {"target": "T1, rat GPCR135", "assay": "inhibition of [125I]R3/I5 binding sites, quantitative receptor autoradiography, rat cortex", "procedure": "as §5"}}, "note": "Read-outs that look alike come from different tables or passages of the source. Ends that are not written are not given here."}
{"binder": "B1", "values": [{"measurement": "IC50", "setting": "rat GPCR135 [1]", "result": 0.5, "unit": "nM"}, {"measurement": "IC50", "setting": "human GPCR142 [2]", "result": 1.4, "unit": "nM"}, {"measurement": "IC50", "setting": "human GPCR135 [3]", "result": 0.68, "unit": "nM"}, {"measurement": "binding result", "setting": "human LGR8", "result": "no binding"}, {"measurement": "fold selectivity over rat LGR7", "setting": "rat GPCR135 [4]", "result": 800, "unit": "fold"}, {"measurement": "IC50", "setting": "human LGR7 [5]", "result": 724, "unit": "nM"}, {"measurement": "IC50", "setting": "rat LGR7", "result": "> 400", "unit": "nM"}, {"measurement": "EC50, ligand stimulated β-galactosidase expression", "setting": "human LGR7 [6]", "result": "~400", "unit": "nM"}, {"measurement": "IC50", "setting": "human LGR7 [7]", "result": "~500", "unit": "nM"}, {"measurement": "Kd", "setting": "human LGR7 [8]", "result": "~500", "unit": "nM"}, {"measurement": "Kd", "setting": "human GPCR135 [9]", "result": "~0.5", "unit": "nM"}, {"measurement": "EC50, ligand stimulated β-galactosidase expression", "setting": "human LGR7 [10]", "result": 412, "unit": "nM"}, {"measurement": "EC50, inhibition of forskolin stimulated β-galactosidase expression", "setting": "human GPCR142 [11]", "result": 0.91, "unit": "nM"}, {"measurement": "EC50, inhibition of forskolin stimulated β-galactosidase expression", "setting": "human GPCR135 [12]", "result": 0.45, "unit": "nM"}]}
{"binder": "B2", "values": [{"measurement": "binding result", "setting": "human LGR7 [13]", "result": "no binding (tested: 1 µM)"}, {"measurement": "IC50", "setting": "human GPCR142 [2]", "result": "> 1000", "unit": "nM"}, {"measurement": "IC50", "setting": "human GPCR135 [3]", "result": "> 1000", "unit": "nM"}, {"measurement": "binding result", "setting": "human LGR8", "result": "no binding"}, {"measurement": "EC50, inhibition of forskolin stimulated β-galactosidase expression", "setting": "human GPCR142 [11]", "result": "> 1000", "unit": "nM"}, {"measurement": "EC50, inhibition of forskolin stimulated β-galactosidase expression", "setting": "human GPCR135 [12]", "result": "> 1000", "unit": "nM"}]}
{"binder": "B3", "values": [{"measurement": "IC50", "setting": "rat LGR7", "result": 0.2, "unit": "nM"}, {"measurement": "IC50", "setting": "rat GPCR135 [14]", "result": "> 1000", "unit": "nM"}]}
{"binder": "B4", "values": [{"measurement": "IC50", "setting": "rat GPCR135 [15]", "result": 0.3, "unit": "nM"}, {"measurement": "EC50, stimulation of β-galactosidase activity", "setting": "human LGR7 [6]", "result": 1.4, "unit": "nM"}, {"measurement": "IC50", "setting": "rat GPCR135 [16]", "result": 0.3, "unit": "nM"}, {"measurement": "IC50", "setting": "rat GPCR135 [17]", "result": 0.4, "unit": "nM"}]}
